Measurements as given in patent publication US20020098537.

How the values were obtained:
[1] = target: single chain HGF (hepatocyte growth factor), P14210
[2] = target: T1, novel protein having inhibitory activity on the protease activity of HGF activator (HAI-I), purified from MKN45 cell culture supernatant
T1 sequence (O43278 36-529, looked up): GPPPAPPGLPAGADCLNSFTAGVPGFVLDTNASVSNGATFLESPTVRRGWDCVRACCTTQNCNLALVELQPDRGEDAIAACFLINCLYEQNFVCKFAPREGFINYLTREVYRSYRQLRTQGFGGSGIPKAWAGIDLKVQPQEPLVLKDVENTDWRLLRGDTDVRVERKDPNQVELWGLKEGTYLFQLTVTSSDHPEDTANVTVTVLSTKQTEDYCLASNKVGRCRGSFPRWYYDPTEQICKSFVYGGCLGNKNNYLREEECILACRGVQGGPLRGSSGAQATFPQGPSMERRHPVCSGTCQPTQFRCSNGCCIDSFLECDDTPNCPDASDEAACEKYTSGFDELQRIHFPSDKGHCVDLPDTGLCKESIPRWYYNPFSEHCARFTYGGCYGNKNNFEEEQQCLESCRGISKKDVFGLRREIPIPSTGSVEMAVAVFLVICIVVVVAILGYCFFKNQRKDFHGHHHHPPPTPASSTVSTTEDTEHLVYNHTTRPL

single chain HGF (hepatocyte growth factor), P14210, sequence (P14210 32-728): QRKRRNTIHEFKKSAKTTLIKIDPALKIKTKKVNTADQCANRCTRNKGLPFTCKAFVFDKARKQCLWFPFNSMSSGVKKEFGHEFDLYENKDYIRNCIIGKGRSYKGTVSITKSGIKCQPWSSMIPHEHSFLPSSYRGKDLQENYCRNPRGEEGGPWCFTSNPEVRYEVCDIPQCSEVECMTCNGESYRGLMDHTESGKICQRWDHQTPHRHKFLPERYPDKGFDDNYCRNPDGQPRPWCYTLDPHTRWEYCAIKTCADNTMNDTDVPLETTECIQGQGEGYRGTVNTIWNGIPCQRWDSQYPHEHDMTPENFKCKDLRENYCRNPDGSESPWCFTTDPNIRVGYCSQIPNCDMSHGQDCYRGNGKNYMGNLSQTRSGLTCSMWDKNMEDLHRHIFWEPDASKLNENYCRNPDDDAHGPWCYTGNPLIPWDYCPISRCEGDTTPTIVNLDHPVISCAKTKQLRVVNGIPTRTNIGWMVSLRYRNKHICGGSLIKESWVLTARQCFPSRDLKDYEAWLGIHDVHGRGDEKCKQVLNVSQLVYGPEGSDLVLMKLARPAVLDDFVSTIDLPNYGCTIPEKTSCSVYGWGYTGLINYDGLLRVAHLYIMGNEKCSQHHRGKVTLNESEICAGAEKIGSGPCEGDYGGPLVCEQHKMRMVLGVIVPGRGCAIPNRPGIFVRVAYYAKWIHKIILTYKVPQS

B1: serum-derived hepatocyte growth factor activator (HGF activator) (protein)
chain: VQLSPDLLATLPEPASPGRQACGRRHKKRTFLRPRIIGGSSSLPGSHPWLAAIYIGDSFCAGSLVHTCWVVSAAHCFSHSPPRDSVSVVLGQHFFNRTTDVTQTFGIEKYIPYTLYSVFNPSDHDLVLIRLKKKGDRCATRSQFVQPICLPEPGSTFPAGHKCQIAGWGHLDENVSGYSSSLREALVPLVADHKCSSPEVYGADISPNMLCAGYFDCKSDACQGDSGGPLACEKNGVAYLYGIISWGDGCGRLHKPGVYTRVANYVDWINDRIRPPRRLVAPS
[1]
  conversion of single chain HGF to double chain HGF (SDS-PAGE under reducing conditions, CBB staining): the activity of HGF activator converting single chain HGF to double chain HGF
[2]
  conversion of single chain HGF to double chain HGF by HGF activator (SDS-PAGE under reducing conditions, CBB staining); 10 ng protein, 5 ng HGF activator, 10 ug single chain HGF: Addition of the protein resulted in suppression of the activity of HGF activator converting single chain HGF to double chain HGF.
